Results published in article PMC4663120.

Target: FhuA ΔC/Δ5L (E. coli) (UniProt P06971)
Assay: single-channel electrical recording on planar lipid bilayer

**Q.** How did the duration of transient current blockades turn out when “nucleocapsid protein 7 (NCp7) (natural protein)” was run?
**A.** Its duration of transient current blockades is < 1 ms.
